Assay results as given in patent US20070086956A1, “Method for accelerating the rate of mucociliary clearance” (BAYER AKTIENGESELLSCHAFT, priority 1998, published 2007).

Test system: sheep airways
Test: Tracheal mucus velocity in the sheep
Assay type: in vivo
Description: The aim of this study was to investigate the effect of the Kunitz family serine protease inhibitor Bikunin (1-170) described in Example 17 on sheep trachcal mucus velocity over 8 hours after treatment. This agent was delivered by nebulised aerosol administration to the airways. The procedure used in this example is described in O'Riordan et al., J. Applied Physiol. 85(3), 1086-1091, 1998.
Adult ewes were restrained in an upright position, with their heads immobilized, in a specialized body harness. They were nasally intubated with an endotracheal tube, with the cuff placed just below the vocal cords. The inspired air was warmed and humidified. To minimize possible impairment of TMV caused by inflated cuffs, the endotracheal tube cuff remained deflated throughout the study except for the period of aerosol administration.
To measure TMV 5 to 10 radiopaque Teflon particles (approximately 1 mm in diameter, 0.8 mm thick, and weighing 1.5 to 2 mg) were insufflated into the trachea via a catheter placed within the endotracheal tube. The movement of the Teflon particles was then measured over a 1 minute period. The procedure used in this example is described in Russi et al., J. Applied Physiol. 59(5), 1416-1422, 1985. A collar containing radiopaque markers of known length was applied to the exterior of the animals and used as a standard to convert distance traversed by the particles on the video screen to actual distance traveled. TMV was calculated from the average distance in a cephalad direction traveled per minute for 5 to 10 Teflon particles. Baseline TMV was measured immediately prior to administration of aerosol.
Test substances; PBS, 1 mg/mL Bikunin in PBS, or 3 mg/mL Bikunin in PBS; were delivered to the sheep airways as an aerosol (3 mL) generated using a Raindrop jet nebuliser operated at a flow rate that produced droplets of mass median aerodynamic diameter of 3.6 um. […]

B1: CHO Bikunin (1-170): Glycosylated placental bikunin (1-170), SEQ ID NO: 52, expressed in Chinese hamster ovary cells (Example 17) (protein, listed as Homo sapiens)
chain: ADRERSIHDFCLVSKVVGRCRASMPRWWYNVTDGSCQLFVYGGCDGNSNNYLTKEECLKKCATVTENATGDLATSRNAADSSVPSAPRRQDSEDHSSDMFNYEEYCTANAVTGPCRASFPRWYFDVERNSCNNFIYGGCRGNKNSYRSEEACMLRCFRQQENPPLPLGSK
modifications: glycosylated, CHO-expressed
B1 was tested, and the TMV (3 mg aerosol (3 mL of 1 mg/mL), any time point versus vehicle) was “no significant differences”, the TMV (9 mg aerosol (3 mL of 3 mg/mL), at 0, 0.5, 3, 4, 5, 6, 7, and 8 hours versus PBS vehicle, FIG. 22) was “significantly increased TMV” and the TMV (9 mg aerosol, at 24 hours) was “returned to baseline rates”.
